Source: the supplement of paper PMC12764529
± gives the half width of the 95% confidence interval.

What was measured:
[1] = folding stability dG unfold from trypsin proteolysis; higher = more stable
How it was run: (§1)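 Bayesian fitting of sequencing counts gave K50 for each design. Unfolding free energy followed by setting this against a sequence-predicted unfolded-state K50 and a shared folded-state K50, either per protease or with trypsin and chymotrypsin combined. The designs, under 80 residues and lacking cysteine, were digested in a PA-tagged cDNA display format at 11 threefold-diluted protease concentrations and without protease, and only those with AlphaFold2 dimer inter-PAE above 15 were kept.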

[2] = folding stability dG unfold from chymotrypsin proteolysis; higher = more stable
How it was run: as §1

[3] = folding stability dG unfold (combined trypsin and chymotrypsin); higher = more stable
How it was run: as §1

| Sequence | folding stability dG unfold [1] [kcal/mol] | folding stability dG unfold [2] [kcal/mol] | folding stability dG unfold [3] [kcal/mol] |
| --- | --- | --- | --- |
| SAGGSAMTVTTLPDGSTVIHLPSGTTITITTAPDGTKPITITPPDGVPTTFPASVSLEDAIKAALSSAGGSA [r15_371_JUSTAS] | 3.58 ± 0.044 | 2.67 ± 0.034 | 3.1 ± 0.032 |
| SAGGKVEVELEDGKLRVKVFDKNGKLVEEVEVELKPVTIVIPGLSEEELQELKEKFPGAKITILEGQKSAGG [r13_235_TrROS_Hall] | 1.73 ± 0.063 | 2.87 ± 0.08 | 2.39 ± 0.11 |
| SAVELPPDASITAVTVDPSGSRTVEVEVKTTTAYVYDPATGTTTTVPPGVRTVVTLPADVPVTVSFTSPSAG [r14_385_JUSTAS] | 0.252 ± 0.099 | 0.484 ± 0.084 | 0.413 ± 0.085 |
| SAGKKVTIKAIVRVKLANGEWFEAKVKEVTFDEETGEVTITVEVDGKTYTITVPLEDIELVDDAEEALKSAG [r5_15_TrROS_Hall] | 2.19 ± 0.034 | 3.72 ± 0.064 | 3.25 ± 0.063 |
| SAGMIKPEEIVEKVKAIFEEEGLENVTVKVYYDEETDEIFVEVEVELEPEEEEKAQAILDKIKKELGLESAG [r5_9_TrMRF] | 3.02 ± 0.29 | 2.38 ± 0.23 | 2.85 ± 0.21 |
| SAGGSAGGSAGGHYIRAEIEIKYEHPGNGQEQTMTIPIEIPIPPPPPVSAEDRAKQNGIGSAGGSAGGSAGG [r7_79_TrROS] | 0.318 ± 0.084 | 0.855 ± 0.041 | 0.669 ± 0.065 |
| SAGAHTVSVHYVEPGSKKLSSVETSEITLEPGEELPLDEVAARFPSENYEVTAQEEPDAITITIYVYRGSAG [r5_269_JUSTAS] | 0.303 ± 0.062 | 0.522 ± 0.27 | 0.547 ± 0.087 |
| SAGGSATQVVLKITIKINKGEKEETREIVLPATDPEEAIAKVKKELKEKGIDAEIEELEILPVDLLSAGGSA [r15_165_JUSTAS] | 1.31 ± 0.089 | 0.919 ± 0.059 | 1.27 ± 0.15 |
| SAGGSAGGSAGGSAELLEVLEVTKTGSGYTVKVLERSPELGPSVRTESFPADDTSVLLLSAGGSAGGSAGGS [r4_253_JUSTAS] | -0.00295 ± 0.088 | -0.384 ± 0.22 | -0.0527 ± 0.1 |
| SAGGSAGGSSGKYTITVTRKNPDGTPLGVFPIEVEGESEEEAKALAEELKNQPDVVEVKVTYVDSAGGSAGG [r6_475_JUSTAS] | 1.37 ± 0.027 | 1.02 ± 0.054 | 1.22 ± 0.048 |
| SAGGKKKLVEITIKVPPGMTVEELIAEIAKKLPPGAKIVKVEYDKETKEIKIIVYDEKTKKKIEIKFSAGGS [r16_250_TrROS_Hall] | 1.81 ± 0.049 | 1.51 ± 0.036 | 1.64 ± 0.14 |
| SAGGKYKIEIVDVEVKEDGTVTIKLKLYNENGELIAEIEIELKGVKEVTLELEIGGKKIKITLKVEKPSAGG [r13_427_TrROS_Hall] | 4.13 ± 0.36 | 5.3 ± 0.17 | 5.36 ± 0.41 |
| SAGGSAGGEFTVTVTIEKDEEKGFIRIPISVSLPSSAFVPKTVEFLEFAKTLKENLPELEVDASSAGGSAGG [r6_102_TrMRF] | 0.609 ± 0.018 | 0.65 ± 0.075 | 0.679 ± 0.038 |
| SAGGGAPNKPVGKETFTVKIGDKWVKVEVTHYATSGTAEVKVTGPNGGPLGTFTVKIDPEKGGVYFGSAGGS [r16_798_TrMRF] | 0.728 ± 0.056 | 2.44 ± 0.074 | 2.11 ± 0.14 |
| SPAGELVSSTFPVTVTVTVWRRLPDGTWTPVGTETFTVTVTVAGIPEEVAEALRKAAETPPPPPNLAGLLSA [r9_1192_TrMRF] | 1.98 ± 0.028 | 1.82 ± 0.049 | 1.93 ± 0.054 |
| SAGGSASRRLFVRTLPDDAVIVVEVPPGMSEEEAVEIAERRAEAAERVLRAAIEAERAGKAPVIPLSAGGSA [r15_704_TrMRF] | 0.594 ± 0.13 | -0.0499 ± 0.29 | 0.342 ± 0.11 |
| SEKPEFKIVKIEVVEVDEDGKTVKVRVVVEGPDGRLYEVEMTLEELKKLLEELGIDLEDIKPGDVIVIPPSA [r9_1078_TrROS_Hall] | 3.75 ± 0.11 | 3.09 ± 0.073 | 3.58 ± 0.15 |
